The target of the assay is T1, 4A6/IL-5複合体 (hIL-5 captured on immobilised mAb 4A6) (human, UniProt P05113 20-134).
T1 construct: also called 4A6/IL-5 complex
Description: BIAcore: mAb 4A6 immobilised, hIL-5 captured, IL-5Rα injected at 15, 30, 60, 120 nM.

We go through 1 molecule from patent JP2000515494A (dated 2000).

T1 sequence (P05113 20-134): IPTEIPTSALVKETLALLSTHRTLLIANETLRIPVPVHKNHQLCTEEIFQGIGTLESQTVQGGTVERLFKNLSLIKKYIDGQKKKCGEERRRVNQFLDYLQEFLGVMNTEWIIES

B1: 可溶性IL-5レセプターα鎖 (soluble IL-5 receptor alpha chain) (receptor, UniProt Q01344 21-335, looked up)
chain: DLLPDEKISLLPPVNFTIKVTGLAQVLLQWKPNPDQEQRNVNLEYQVKINAPKEDDYETRITESKCVTILHKGFSASVRTILQNDHSLLASSWASAELHAPPGSPGTSIVNLTCTTNTTEDNYSRLRSYQVSLHCTWLVGTDAPEDTQYFLYYRYGSWTEECQEYSKDTLGRNIACWFPRTFILSKGRDWLAVLVNGSSKHSAIRPFDQLFALHAIDQINPPLNVTAEIEGTRLSIQWEKPVSAFPIHCFDYEVKIHNTRNGYLQIEKLMTNAFISIIDDLSKYDVQVRAAVSSMCREAGLWSEWSQPIYVGNDE
notes: also called IL-5Pα [sic]
The molecule B1 registered an off-rate constant (koff) of 0.0023 s⁻¹ and a kon of 630000 M⁻¹ s⁻¹.
